System: podocytes
Test: Rhodamine-transferrin uptake (endocytosis) in podocytes
Format: cell-based, mouse
Conditions: overexpression in podocytes
Description: Since dynamin is known to play a major role in regulation of clathrin-mediated endocytosis, it appeared possible that the observed actin phenotypes as described above were indirect consequence of changes in endocytosis. […] While LPS treatment of cells overexpressing dynWT had no effect on endocytosis of rhodamine-transferrin (FIG. 1D), it did induce cell motility and changes in actin cytoskeleton.
Conditionally immortalized mouse podocyte cell lines were grown as described previously (Mundel et al., Exp Cell Res 236; 248-258; (1997)). Dynamin antibodies: Anti-dynamin (hudy 1) monoclonal antibody was purchased from Upstate Technology (Lake Placid, N.Y.); mouse anti-dyn1 monoclonal antibody (MAB 5402) was from Chemicon (Temecula, Calif.); mouse anti-dyn1 monoclonal antibody (VAM-SVO41) was from StressGene (Victoria, Canada). The rabbit antiserum against mouse CatL was used as described (Ishidoh and Kominami, 1994). For immunogold and immunocytochemistry analysis of CatL, we used a rabbit polyclonal antibody against CatL as described before (Ahn et al., Traffic 3, 147-159 (2002)). CatL −/− fibroblasts were maintained as described previously (Hsieh et al., J Immunol 168, 2618-2625 (2002)). Stable CatL knock-down cell lines were generated with a vector-based siRNA directed against CatL (target sequence 5′-GTGGACTGTTCTCACGCT-3; SEQ ID NO.32). Quantitative PCR was performed on a Applied Biosystems 7300 Real-Time PCR System. Fold-expression changes were calculated using the comparative CT method for relative quantitation with the equation 2^−ΔΔCT. Protein expression levels for dynamin and CatL were calculated using densitometric analysis with Kodak imaging software. Statistical significance was assessed with the unpaired t-test with Welch's correction. Transfections with CatL constructs were performed using Lipofectamine 2000 (Invitrogen) following manufacturer's instructions. Immunocytochemical analysis of cultured podocytes was done as described (Reiser et al., J Biol Chem 279, 34827-34832 (2004)). Immunoperoxidase labeling of human tissue was done on formalin fixed kidney biopsies embedded in paraffin. Transmission electron microscopy (TEM) and immunoelectron microscopy (IEM) were performed as described (Regele et al., J Am Soc Nephrol 11, 403-412 (2000)). Subcellular fractionation of cultured cells was performed as described (Damke et al., J Cell Biol 127, 915-934 (1994)). Internalization of rhodamine-transferrin (R-Tfn) was performed using 20 μg/ml R-Tfn in PBS containing 1 mM CaCl2, 1 mM MgCl2, 5 mM glucose, and 0.2% BSA for 10 min at 37° C.

B1: dynK694A: dominant activator dynamin mutant impaired in self-assembly (protein)
chain: MGNRGMEDLIPLVNRLQDAFSAIGQNADLDLPQIAVVGGQSAGKSSVLENFVGRDFLPRGSGIVTRRPLVLQLVNATTEYAEFLHCKGKKFTDFEEVRLEIEAETDRVTGTNKGISPVPINLRVYSPHVLNLTLVDLPGMTKVPVGDQPPDIEFQIRDMLMQFVTKENCLILAVSPANSDLANSDALKVAKEVDPQGQRTIGVITKLDLMDEGTDARDVLENKLLPLRRGYIGVVNRSQKDIDGKKDITAALAAERKFFLSHPSYRHLADRMGTPYLQKVLNQQLTNHIRDTLPGLRNKLQSQLLSIEKEVEEYKNFRPDDPARKTKALLQMVQQFAVDFEKRIEGSGDQIDTYELSGGARINRIFHERFPFELVKMEFDEKELRREISYAIKNIHGIRTGLFTPDMAFETIVKKQVKKIREPCLKCVDMVISELISTVRQCTKKLQQYPRLREEMERIVTTHIREREGRTKEQVMLLIDIELAYMNTNHEDFIGFANAQQRSNQMNKKKTSGNQDEILVIRKGWLTINNIGIMKGGSKEYWFVLTAENLSWYKDDEEKEKKYMLSVDNLKLRDVEKGFMSSKHIFALFNTEQRNVYKDYRQLELACETQEEVDSWKASFLRAGVYPERVGDKEKASETEENGSDSFMHSMDPQLERQVETIRNLVDSYMAIVNKTVRDLMPKTIMHLMINNTAEFIFSELLANLYSCGDQNTLMEESAEQAQRRDEMLRMYHALKEALSIIGDINTTTVSTPMPPPVDDSWLQVQSVPAGRRSPTSSPTPQRRAPAVPPARPGSRGPAPGPPPAGSALGGAPPVPSRPGASPDPFGPPPQVPSRPNRAPPGVPSRSGQASPSRPESPRPPFDL
  transferrin uptake (endocytosis), in words: lead to increase in transferring uptake

— patent publication US9144594B2, “Cathepsin L mediated diseases and associated methods and products” (University of Miami, priority 2005, dated 2015)
